Measured values taken from publication PMC4670726, “Systematic discovery of linear binding motifs targeting an ancient protein interaction surface on MAP kinases” (Molecular Systems Biology, 2015).
Blank lines part the entries; values can stand above or below the binder they belong to. Ends that are not written are not given here.

Experiments:
[1] = target: T1, p38α (as used in the fluorescence polarization titrations) (human, UniProt Q16539 1-360); test: fluorescence polarisation; competition: 50 nM N-terminally labeled reporter peptide mixed with MAPK at ~60–80% complex formation, increasing amounts of unlabeled synthetic test peptide added; 384-well plates, triplicates; Ki from a competition binding equation; settings: both partners purified
T1 construct: p38α; the FP methods say only 'MAPKs'

[2] = target: T2, ERK2 (as used in the fluorescence polarization titrations) (human, UniProt P28482 1-360); test: as above; settings: both partners purified
T2 construct: ERK2; the FP methods say only 'MAPKs'
T2 sequence (P28482 whole entry): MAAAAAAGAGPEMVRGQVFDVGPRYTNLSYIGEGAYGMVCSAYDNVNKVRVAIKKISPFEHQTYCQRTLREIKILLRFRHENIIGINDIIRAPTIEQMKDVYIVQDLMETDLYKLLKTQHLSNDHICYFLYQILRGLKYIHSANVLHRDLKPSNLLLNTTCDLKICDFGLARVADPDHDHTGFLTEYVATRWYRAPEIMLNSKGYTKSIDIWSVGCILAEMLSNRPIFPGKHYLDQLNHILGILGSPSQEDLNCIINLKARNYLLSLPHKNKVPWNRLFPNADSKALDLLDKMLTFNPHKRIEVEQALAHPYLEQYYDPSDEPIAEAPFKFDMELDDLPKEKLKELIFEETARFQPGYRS

T1 sequence (Q16539 whole entry): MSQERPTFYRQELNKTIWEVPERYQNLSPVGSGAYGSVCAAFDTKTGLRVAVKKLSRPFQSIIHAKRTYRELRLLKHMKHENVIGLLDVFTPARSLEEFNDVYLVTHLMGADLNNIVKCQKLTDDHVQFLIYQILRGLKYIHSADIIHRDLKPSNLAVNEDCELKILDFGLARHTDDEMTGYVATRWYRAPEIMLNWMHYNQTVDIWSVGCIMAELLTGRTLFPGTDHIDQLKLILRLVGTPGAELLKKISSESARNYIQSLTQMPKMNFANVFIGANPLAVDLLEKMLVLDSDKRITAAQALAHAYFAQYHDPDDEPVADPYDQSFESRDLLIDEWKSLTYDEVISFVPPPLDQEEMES

binding result [1]: binds
B1: pepMEF2A, labeled reporter peptide (peptide)
peptide: SRKPDLRVVIPPS
modifications: also: N-terminally labeled with carboxyfluorescein or carboxytetramethylrhodamine
notes: docking peptide of MEF2A; source: synthetic peptide

binding result [1]: binds
B2: pepMK2, labeled reporter peptide (peptide)
peptide: IKIKKIEDASNPLLLKRRKK
modifications: also: N-terminally labeled with carboxyfluorescein or carboxytetramethylrhodamine
notes: docking peptide of MK2; source: synthetic peptide

binding result [2]: binds
B3: pepRSK1, labeled reporter peptide (peptide)
peptide: PQLKPIESSILAQRRVRKLPSTTL
modifications: also: N-terminal label: carboxyfluorescein or carboxytetramethylrhodamine
notes: docking peptide of RSK1; source: synthetic peptide
